Like-named read-outs stand apart in the source and are kept apart here.
Legend:
GDF11 [1] = target: T1, GDF11 (UniProt O95390 299-407); test: SPR (Biacore); receptor-Fc captured by anti-Fc antibody, ligand injected; † Very low signal
T1 construct: also called BMP11
T1 sequence (looked up): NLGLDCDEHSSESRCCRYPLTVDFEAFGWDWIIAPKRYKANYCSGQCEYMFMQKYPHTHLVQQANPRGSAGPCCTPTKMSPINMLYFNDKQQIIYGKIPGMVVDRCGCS
Method: (§1) A Biacore™-based binding assay was used to compare ligand binding selectivity of the ActRIIA-Fc:ALK4-Fc heterodimeric complex described above with that of ActRIIA-Fc and ALK4-Fc homodimeric complexes. The ActRIIA-Fc:ALK4-Fc heterodimer, ActRIIA-Fc homodimer, and ALK4-Fc homodimer were independently captured onto the system using an anti-Fc antibody. Ligands were injected and allowed to flow over the captured receptor protein. Results are summarized in Table 14 below, in which ligand off-rates (kd) most indicative of effective ligand traps are denoted in bold.

activin B = target: T2, activin B (UniProt P09529 293-407); test: SPR (Biacore); receptor-Fc captured by anti-Fc antibody, ligand injected
T2 sequence (looked up): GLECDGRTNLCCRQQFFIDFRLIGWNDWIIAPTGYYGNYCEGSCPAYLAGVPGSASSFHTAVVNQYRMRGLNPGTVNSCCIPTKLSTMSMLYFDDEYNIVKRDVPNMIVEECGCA
Method: (§2) A Biacore™-based binding assay was used to compare ligand binding selectivity of the ALK4-Fc:ActRIIB-Fc heterodimeric complex described above with that of ActRIIB-Fc and ALK4-Fc homodimer complexes. The ALK4-Fc:ActRIeB-Fc heterodimer, […], and ALK4-Fc homodimer were independently captured onto the system using an anti-Fc antibody. Ligands were injected and allowed to flow over the captured receptor protein. Results are summarized in Table 13 below, in which ligand off-rates (kd) most indicative of effective polypeptides are denoted in bold.

GDF11 [2] = target: T1, GDF11; test: as above
Method: as §2

activin A [3] = target: T3, activin A (UniProt P08476 311-426); test: as above
T3 construct: also called ActA
T3 sequence (looked up): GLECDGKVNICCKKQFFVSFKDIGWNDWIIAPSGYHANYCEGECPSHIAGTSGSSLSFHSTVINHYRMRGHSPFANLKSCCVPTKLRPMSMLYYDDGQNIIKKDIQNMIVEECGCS
Method: as §2

GDF11 [4] = target: T1, GDF11; test: SPR (Biacore); receptor-Fc captured by anti-Fc antibody, ligand injected; † Very low signal; remark: listed apart in the source
Method: as §1

BMP7 = target: T4, BMP7 (UniProt P18075 293-431); test: SPR (Biacore); receptor-Fc captured by anti-Fc antibody, ligand injected
T4 sequence (looked up): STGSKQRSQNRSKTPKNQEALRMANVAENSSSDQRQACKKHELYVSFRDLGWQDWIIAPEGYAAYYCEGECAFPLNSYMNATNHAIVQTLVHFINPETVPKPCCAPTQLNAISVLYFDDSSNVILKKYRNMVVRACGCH
Method: as §1

BMP6 = target: T5, BMP6 (UniProt P22004 375-513, limits assumed); test: as above
T5 sequence (looked up): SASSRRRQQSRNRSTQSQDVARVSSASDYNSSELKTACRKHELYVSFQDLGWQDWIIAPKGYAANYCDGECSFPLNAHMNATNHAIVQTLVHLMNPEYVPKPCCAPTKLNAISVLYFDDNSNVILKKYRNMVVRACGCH
Method: as §1

GDF11 [5] = target: T1, GDF11; test: as above; remark: listed apart in the source
Method: as §1

activin A [6] = target: T3, activin A; test: as above; remark: listed apart in the source
Method: as §1

activin AB = target: T6, activin AB (UniProt P08476 311-426; P09529 293-407); test: as above
T6 sequence (looked up) 1: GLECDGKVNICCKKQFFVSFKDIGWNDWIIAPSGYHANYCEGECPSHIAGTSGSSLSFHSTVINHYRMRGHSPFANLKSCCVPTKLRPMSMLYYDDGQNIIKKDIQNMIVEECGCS
T6 sequence (looked up) 2: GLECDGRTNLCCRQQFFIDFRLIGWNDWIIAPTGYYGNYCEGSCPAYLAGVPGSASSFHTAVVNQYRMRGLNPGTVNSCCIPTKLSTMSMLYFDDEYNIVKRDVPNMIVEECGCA
Method: as §1

BMP10 = target: T7, BMP10 (UniProt O95393 317-424); test: as above
T7 sequence (looked up): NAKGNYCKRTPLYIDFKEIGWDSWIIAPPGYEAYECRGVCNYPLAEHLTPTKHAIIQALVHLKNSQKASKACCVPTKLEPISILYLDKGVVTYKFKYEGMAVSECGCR
Method: as §1

activin AC = target: T8, activin AC (UniProt P08476 311-426; P55103 237-352); test: as above
T8 sequence (looked up) 1: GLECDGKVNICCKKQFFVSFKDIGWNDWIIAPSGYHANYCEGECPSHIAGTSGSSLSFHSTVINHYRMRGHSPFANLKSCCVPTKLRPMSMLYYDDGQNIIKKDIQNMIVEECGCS
T8 sequence (looked up) 2: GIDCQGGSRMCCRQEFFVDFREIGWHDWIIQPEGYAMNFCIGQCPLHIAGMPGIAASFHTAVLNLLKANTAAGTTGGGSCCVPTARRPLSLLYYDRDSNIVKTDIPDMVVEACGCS
Method: as §1

B1: ALK4-Fc homodimer (Fc fusion, not shown: a dimerising Fc or GST)
chain: SGPRGVQALLCACTSCLQANYTCETDGACMVSIFNLDGMEHHVRTCIPKVELVPAGKPFYCLSSEDLRNTHCCYTDYCNRIDLRVPSGHLKEPEHPSMWGPVE
Kd (GDF11 [1]): 0.97 nM
binding result (activin B): no binding
koff (GDF11 [2]): 0.0048 s⁻¹
kon (GDF11 [2]): 5e+06 M⁻¹ s⁻¹
Kd (activin A [3]): 20 nM
koff (activin A [3]): 0.012 s⁻¹
kon (activin A [3]): 580000 M⁻¹ s⁻¹
Kd (GDF11 [4]): 0.97 nM
binding result (BMP7): no binding
binding result (BMP6): no binding
koff (GDF11 [5]): 0.0048 s⁻¹
kon (GDF11 [5]): 5e+06 M⁻¹ s⁻¹
Kd (activin A [6]): 20 nM
koff (activin A [6]): 0.012 s⁻¹
kon (activin A [6]): 580000 M⁻¹ s⁻¹
Kd (activin AB): 2 nM
koff (activin AB): 0.0036 s⁻¹
kon (activin AB): 1.8e+06 M⁻¹ s⁻¹
binding result (BMP10): no binding
binding result (activin AC): no binding

Source: US20230129812A1 (ACCELERON PHARMA, published 2023)
